IntAct's records for PubMed 29954986

B1: Protein patched homolog 1 (Homo sapiens), Q13635-1 (parent)
chain: MASAGNAAEPQDRGGGGSGCIGAPGRPAGGGRRRRTGGLRRAAAPDRDYLHRPSYCDAAFALEQISKGKATGRKAPLWLRAKFQRLLFKLGCYIQKNCGKFLVVGLLIFGAFAVGLKAANLETNVEELWVEVGGRVSRELNYTRQKIGEEAMFNPQLMIQTPKEEGANVLTTEALLQHLDSALQASRVHVYMYNRQWKLEHLCYKSGELITETGYMDQIIEYLYPCLIITPLDCFWEGAKLQSGTAYLLGKPPLRWTNFDPLEFLEELKKINYQVDSWEEMLNKAEVGHGYMDRPCLNPADPDCPATAPNKNSTKPLDMALVLNGGCHGLSRKYMHWQEELIVGGTVKNSTGKLVSAHALQTMFQLMTPKQMYEHFKGYEYVSHINWNEDKAAAILEAWQRTYVEVVHQSVAQNSTQKVLSFTTTTLDDILKSFSDVSVIRVASGYLLMLAYACLTMLRWDCSKSQGAVGLAGVLLVALSVAAGLGLCSLIGISFNAATTQVLPFLALGVGVDDVFLLAHAFSETGQNKRIPFEDRTGECLKRTGASVALTSISNVTAFFMAALIPIPALRAFSLQAAVVVVFNFAMVLLIFPAILSMDLYRREDRRLDIFCCFTSPCVSRVIQVEPQAYTDTHDNTRYSPPPPYSSHSFAHETQITMQSTVQLRTEYDPHTHVYYTTAEPRSEISVQPVTVTQDTLSCQSPESTSSTRDLLSQFSDSSLHCLEPPCTKWTLSSFAEKHYAPFLLKPKAKVVVIFLFLGLLGVSLYGTTRVRDGLDLTDIVPRETREYDFIAAQFKYFSFYNMYIVTQKADYPNIQHLLYDLHRSFSNVKYVMLEENKQLPKMWLHYFRDWLQGLQDAFDSDWETGKIMPNNYKNGSDDGVLAYKLLVQTGSRDKPIDISQLTKQRLVDADGIINPSAFYIYLTAWVSNDPVAYAASQANIRPHRPEWVHDKADYMPETRLRIPAAEPIEYAQFPFYLNGLRDTSDFVEAIEKVRTICSNYTSLGLSSYPNGYPFLFWEQYIGLRHWLLLFISVVLACTFLVCAVFLLNPWTAGIIVMVLALMTVELFGMMGLIGIKLSAVPVVILIASVGIGVEFTVHVALAFLTAIGDKNRRAVLALEHMFAPVLDGAVSTLLGVLMLAGSEFDFIVRYFFAVLAILTILGVLNGLVLLPVLLSFFGPYPEVSPANGLNRLPTPSPEPPPSVVRFAMPPGHTHSGSDSSDSEYSSQTTVSGLSEELRHYEAQQGAGGPAHQVIVEATENPVFAHSTVVHPESRHHPPSNPRQQPHLDSGSLPPGRQGQQPRRDPPREGLWPPPYRPRRDAFEISTEGHSGPSNRARWGPRGARSHNPRNPASTAMGSSVPGYCQPITTVTASASVTVAVHPPPVPGPGRNPRGGLCPGYPETDHGLFEDPHVPFHVRCERRDSKVEVIELQDVECEERPRGSSSN

Variants of: B1
Details: with shh_human SHH

effect of a mutation on the interaction	Variant
disrupting interaction	L282Q;T500F;P504L
disrupting interaction	L282Q
disrupting interaction	D513Y
disrupting interaction	T500F;P504L
disrupting interaction	G509V
